Data from publication PMC8957996.
Values belong to the substance of their own block, whether it stands above or below them.

Key:
[1] = target: [Ala^1]gA; experiment: single-channel electrophysiology (planar lipid bilayer); DOPC/n-decane bilayer, AgA(15) and gA^-(13) together, 1 M NaCl, pH 7, 200 mV, 500 Hz; 25 ± 1 °C
[2] = target: [Ala^1]gA; experiment: single-channel electrophysiology (planar lipid bilayer); DLoPC/n-decane bilayer (25 uM butylated hydroxytoluene in the bilayer-forming solution), AgA(15) and gA^-(13) together, 1 M NaCl, pH 7 (10 mM HEPES), 200 mV, 500 Hz; 25 ± 1 °C
[3] = target: [Ala^1]gA; experiment: single-channel electrophysiology (planar lipid bilayer); DoPC (ether phospholipid)/n-decane bilayer, AgA(15) and gA^-(13) together, 1 M NaCl, pH 7 (10 mM HEPES), 200 mV, 500 Hz; 25 ± 1 °C
[4] = target: [Val^1]gA; experiment: single-channel electrophysiology (planar lipid bilayer); DOPS/n-decane bilayer, 0.1 M Na+, pH 5 (Gly-Gly); bilayer punch method, 25 ± 1 °C, ±200 mV
[5] = target: [Val^1]gA; experiment: single-channel electrophysiology (planar lipid bilayer); DOPE:DOPC (4:1)/n-decane bilayer, 0.1 M Na+, pH 7.8 (Na2HPO4); bilayer punch method, 25 ± 1 °C, ±200 mV
[6] = target: [Val^1]gA; experiment: single-channel electrophysiology (planar lipid bilayer); DOPE:DOPC (1:1)/n-decane bilayer, 1.0 M NaCl, unbuffered (pH 6-7); bilayer punch method, 25 ± 1 °C, 200 mV, 100 Hz
[7] = target: [Val^1]gA; experiment: single-channel electrophysiology (planar lipid bilayer); DOPS/n-decane bilayer, 0.1 M Na+, pH 8 (Na2HPO4); bilayer punch method, 25 ± 1 °C, ±200 mV; monomers in opposing monolayers dimerise to the conducting channel
[8] = target: [Val^1]gA; experiment: single-channel electrophysiology (planar lipid bilayer); DOPS:DOPE (1:2)/n-decane bilayer, 0.1 M Na+, pH 7 (HEPES); bilayer punch method, 25 ± 1 °C, ±200 mV
[9] = target: [Val^1]gA; experiment: single-channel electrophysiology (planar lipid bilayer); DOPS:DOPC (1:2)/n-decane bilayer, 0.1 M Na+, pH 7 (HEPES); bilayer punch method, 25 ± 1 °C, ±200 mV
[10] = target: [Val^1]gA; experiment: single-channel electrophysiology (planar lipid bilayer); DOPE:DOPC (4:1)/n-decane bilayer, 0.1 M Na+, pH 5 (Gly-Gly); bilayer punch method, 25 ± 1 °C, ±200 mV
[11] = target: [Val^1]gA; experiment: single-channel electrophysiology (planar lipid bilayer); DOPE:DOPC (4:1)/n-decane bilayer, 0.1 M Na+, pH 9 (Na2HPO4); bilayer punch method, 25 ± 1 °C, ±200 mV
[12] = target: [Val^1]gA; experiment: single-channel electrophysiology (planar lipid bilayer); DOPS/n-decane bilayer, 0.1 M Na+, pH 6 (Na2HPO4); bilayer punch method, 25 ± 1 °C, ±200 mV
[13] = target: [Val^1]gA; experiment: single-channel electrophysiology (planar lipid bilayer); DOPS/n-decane bilayer, 0.1 M Na+, pH 7 (Na2HPO4); bilayer punch method, 25 ± 1 °C, ±200 mV
[14] = target: [Val^1]gA; experiment: single-channel electrophysiology (planar lipid bilayer); DOPE:DOPC (4:1)/n-decane bilayer, 0.1 M Na+, pH 0; bilayer punch method, 25 ± 1 °C, ±200 mV
[15] = target: [Val^1]gA; experiment: single-channel electrophysiology (planar lipid bilayer); DOPS/n-decane bilayer, 0.1 M Na+, pH 7 (HEPES); bilayer punch method, 25 ± 1 °C, ±200 mV
[16] = target: [Val^1]gA; experiment: single-channel electrophysiology (planar lipid bilayer); DOPS/n-decane bilayer, 0.1 M Na+, pH 4 (Gly-Gly); bilayer punch method, 25 ± 1 °C, ±200 mV
[17] = target: [Val^1]gA; experiment: single-channel electrophysiology (planar lipid bilayer); DOPE:DOPC (4:1)/n-decane bilayer, 0.1 M Na+, pH 1; bilayer punch method, 25 ± 1 °C, ±200 mV
[18] = target: [Val^1]gA; experiment: single-channel electrophysiology (planar lipid bilayer); DOPE:DOPC (3:1)/n-decane bilayer, 1.0 M NaCl, unbuffered (pH 6-7); bilayer punch method, 25 ± 1 °C, 200 mV, 100 Hz
[19] = target: [Val^1]gA; experiment: single-channel electrophysiology (planar lipid bilayer); DOPE:DOPC (4:1)/n-decane bilayer, 0.1 M Na+, pH 3 (Gly-Gly); bilayer punch method, 25 ± 1 °C, ±200 mV
[20] = target: [Val^1]gA; experiment: single-channel electrophysiology (planar lipid bilayer); DOPC/n-decane bilayer, 1.0 M NaCl, unbuffered (pH 6-7); bilayer punch method, 25 ± 1 °C, 200 mV, 100 Hz
[21] = target: [Val^1]gA; experiment: single-channel electrophysiology (planar lipid bilayer); DOPE:DOPC (1:3)/n-decane bilayer, 1.0 M NaCl, unbuffered (pH 6-7); bilayer punch method, 25 ± 1 °C, 200 mV, 100 Hz
[22] = target: [Val^1]gA; experiment: single-channel electrophysiology (planar lipid bilayer); DOPS/n-decane bilayer, 0.1 M Na+, pH 3 (Gly-Gly); bilayer punch method, 25 ± 1 °C, ±200 mV
[23] = target: des-(Val^1-Gly^2)gA^–; experiment: single-channel electrophysiology (planar lipid bilayer); DOPC/n-decane bilayer, AgA(15) and gA^-(13) together, 1 M NaCl, pH 7, 200 mV, 500 Hz; 25 ± 1 °C
[24] = target: des-(Val^1-Gly^2)gA^–; experiment: single-channel electrophysiology (planar lipid bilayer); DLoPC/n-decane bilayer (25 uM butylated hydroxytoluene in the bilayer-forming solution), AgA(15) and gA^-(13) together, 1 M NaCl, pH 7 (10 mM HEPES), 200 mV, 500 Hz; 25 ± 1 °C
[25] = target: des-(Val^1-Gly^2)gA^–; experiment: single-channel electrophysiology (planar lipid bilayer); DoPC (ether phospholipid)/n-decane bilayer, AgA(15) and gA^-(13) together, 1 M NaCl, pH 7 (10 mM HEPES), 200 mV, 500 Hz; 25 ± 1 °C

- channel lifetime tau (= 1/k-1, dissociation of the dimer) [1]: 170 ms
- channel lifetime tau (= 1/k-1, dissociation of the dimer) [2]: 823 ms
- channel lifetime tau (= 1/k-1, dissociation of the dimer) [3]: 296 ms
Substance: [Ala^1]gA (peptide)

- channel lifetime tau (= 1/k-1, dissociation of the dimer) [4]: 800 ms
- channel lifetime tau (= 1/k-1, dissociation of the dimer) [5]: 100 ms
- channel lifetime tau (= 1/k-1, dissociation of the dimer) [6]: 240 ms
- channel lifetime tau (single experiment) [6]: 229 ms
- channel lifetime tau (= 1/k-1, dissociation of the dimer) [7]: 1380 ms
- channel lifetime tau (= 1/k-1, dissociation of the dimer) [8]: 140 ms
- channel lifetime tau (single experiment) [8]: 143 ms
- channel lifetime tau (= 1/k-1, dissociation of the dimer) [9]: 470 ms
- channel lifetime tau (single experiment) [9]: 486 ms
- channel lifetime tau (= 1/k-1, dissociation of the dimer) [10]: 80 ms
- channel lifetime tau (single experiment) [10]: 65 ms
- channel lifetime tau (= 1/k-1, dissociation of the dimer) [11]: 150 ms
- channel lifetime tau (single experiment) [11]: 162 ms
- channel lifetime tau (= 1/k-1, dissociation of the dimer) [12]: 920 ms
- channel lifetime tau (= 1/k-1, dissociation of the dimer) [13]: 1320 ms
- channel lifetime tau (= 1/k-1, dissociation of the dimer) [14]: 220 ms
- channel lifetime tau (single experiment) [14]: 235 ms
- channel lifetime tau (= 1/k-1, dissociation of the dimer) [15]: 1340 ms
- channel lifetime tau (= 1/k-1, dissociation of the dimer) [16]: 270 ms
- channel lifetime tau (= 1/k-1, dissociation of the dimer) [17]: 90 ms
- channel lifetime tau (= 1/k-1, dissociation of the dimer) [18]: 260 ms
- fold decrease of k1 (association rate constant) against DOPC bilayers [18]: 10 fold
- fold decrease of the dimerization constant KD (= k1·τ) against DOPC bilayers [18]: 20 fold
- channel lifetime tau (= 1/k-1, dissociation of the dimer) [19]: 70 ms
- channel lifetime tau (= 1/k-1, dissociation of the dimer) [20]: 550 ms
- channel lifetime tau (single experiment) [20]: 563 ms
- channel lifetime tau (= 1/k-1, dissociation of the dimer) [21]: 350 ms
- channel lifetime tau (single experiment) [21]: 304 ms
- channel lifetime tau (= 1/k-1, dissociation of the dimer) [22]: 170 ms
- fold decrease of k1 (association rate constant) against pH 7 [22]: 100 to 400 fold
- fold decrease of the dimerization constant KD (= k1·τ) against pH 7 [22]: 1000 fold
Substance: [Val^1]gA (peptide)

- channel lifetime tau (= 1/k-1, dissociation of the dimer) [23]: 13.8 ms
- channel lifetime tau (= 1/k-1, dissociation of the dimer) [24]: 61 ms
- channel lifetime tau (= 1/k-1, dissociation of the dimer) [25]: 29 ms
Substance: des-(Val^1-Gly^2)gA^– (peptide)
